This is an account of results in patent US20050214802A1 (Genentech, published 2005).

Assay [1] deals with ΔCARD human caspase 9 (lacking the first 138 residues) with Ala substitutions at residues 304 to 306 (human) (UniProt P55211). Nature of the assay: Ki(app), inhibition of ΔCARD caspase-9 hydrolysis of Ac-LEHD-AFC; too low to measure accurately.
The target is the same in assay [2]. Kind of assay: Ki(app), inhibition of ΔCARD caspase-9 hydrolysis of Ac-LEHD-AFC.
Assay [3] has the same target. Nature of the assay: caspase-9 inhibition assay, ratio of Ki(app).
For assay [4] the target is unchanged. Kind of assay: Ki(app), caspase-9 inhibition; upper end tied by Table 7 to MLBIR-Q (4,600 nM).
For assay [5] the target is unchanged. Kind of assay: caspase-9 inhibition assay, ratio of Ki(app). The source holds these as a separate data set.
For assay [6] the target is unchanged. Nature of the assay: Ki(app), caspase-9 inhibition; lower end tied by Table 7 to full-length ML-IAP (3,200 nM).
Assay [7] has as its target T1, caspase-9 zymogen precursor (overexpressed in 293T cells) (UniProt P55211 1-416).
T1 sequence (looked up): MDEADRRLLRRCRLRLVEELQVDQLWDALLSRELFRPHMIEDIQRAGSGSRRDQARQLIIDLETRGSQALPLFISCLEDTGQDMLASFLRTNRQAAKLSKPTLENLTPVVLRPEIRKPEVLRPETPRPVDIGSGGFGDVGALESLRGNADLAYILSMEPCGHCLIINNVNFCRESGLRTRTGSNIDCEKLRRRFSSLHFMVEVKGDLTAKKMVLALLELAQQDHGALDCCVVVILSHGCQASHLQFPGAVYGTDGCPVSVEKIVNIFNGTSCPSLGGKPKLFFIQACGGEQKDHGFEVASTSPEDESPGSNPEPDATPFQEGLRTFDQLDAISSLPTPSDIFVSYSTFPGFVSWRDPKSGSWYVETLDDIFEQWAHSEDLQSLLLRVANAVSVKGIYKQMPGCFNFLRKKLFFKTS
Nature of the assay: co-immunoprecipitation (anti-Flag) from 293T lysates, Western blot with anti-caspase-9. The method, then: 293T cells were transiently transfected with caspase-9 and Flag-tagged BIR domain proteins or vector. After 40 h, cells were lysed in NP40 lysis buffer (120 mM Tris, 150 mM NaCl, 1% NP-40, 1 mM DTT and protease inhibitor cocktail) and lysates immunoprecipitated (IP) with anti-Flag antibody. Samples were then Western blotted with anti-caspase-9 and anti-Flag antibodies. […] When overexpressed, caspase-9 undergoes autocatalytic processing and it is the processed form that physically interacts with XIAP and ML-IAP BIR domains.
Background: Immunoblotting shows a protein as a band on a membrane.

“MLXBIR3SG (ML-IAP chimera: ML-IAP-BIR framework with XIAP-BIR3 residues 336-348 in place of 160-179 and S150G)” returned a Ki in assay [1] of under 1 nM. In assay [2], “XIAP-BIR3 (third BIR of XIAP, residues 252-348) (from UniProt P98170 252-348)” displayed a Ki of 13 nM.

With “MLXBIR3 (ML-IAP-BIR with amino acids 160-179 replaced by amino acids 336-348 of XIAP-BIR3) (from UniProt Q96CA5 63-159; P98170 336-348)”, in assay [3], the fold better at inhibiting caspase-9 than MLBIR-Q came out at 5 fold and the fold less potent at inhibiting caspase-9 than XIAP-BIR3 is 70 fold. Besides, the Ki in assay [2] was 962 nM.

B1: MLBIR-Q (C-terminally truncated variant of ML-IAP-BIR) (protein, human, UniProt Q96CA5 63-172, looked up, not shown: small tags and cut ends)
chain: TEEEEEEGAGATLSRGPAFPGMGSEELRLASFYDWPLTAEVPPELLAAAGFFHTGHQDKVRCFFCYGGLQSWKRGDDPWTEHAKWFPSCQFLLRSKGRDFVHSVQETHSQ
Consider B1, for which the Ki in assay [4] is 3000 to 5000 nM; in assay [2], 4600 nM.

B2: full-length ML-IAP with N-terminal His6-tag (protein, human, UniProt Q96CA5 1-298, looked up, not shown: small tags and cut ends)
chain: MGPKDSAKCLHRGPQPSHWAAGDGPTQERCGPRSLGSPVLGLDTCRAWDHVDGQILGQLRPLTEEEEEEGAGATLSRGPAFPGMGSEELRLASFYDWPLTAEVPPELLAAAGFFHTGHQDKVRCFFCYGGLQSWKRGDDPWTEHAKWFPSCQFLLRSKGRDFVHSVQETHSQLLGSWDPWEEPEDAAPVAPSVPASGYPELPTPRREVQSESAQEPGGVSPAEAQRAWWVLEPPGARDVEAQLRRLQEERTCKVCLDRAVSIVFVPCGHLVCAECAPGLQLCPICRAPVRSRVRTFLS
As to B2, the fold lower potency for inhibition of caspase-9 relative to XIAP in assay [5] is 300 fold. Also, the Ki in assay [2] is 3200 nM; in assay [6] it was 3000 to 5000 nM.

B3: Flag-tagged ML-IAP-BIR (expressed in 293T cells) (other, human, UniProt Q96CA5 63-179, looked up)
chain: TEEEEEEGAGATLSRGPAFPGMGSEELRLASFYDWPLTAEVPPELLAAAGFFHTGHQDKVRCFFCYGGLQSWKRGDDPWTEHAKWFPSCQFLLRSKGRDFVHSVQETHSQLLGSWDP
notes: domain: BIR; also called MLBIR; wild-type ML-IAP-BIR; not shown: Flag tag
As for B3, in assay [7], the binding result is given as “no binding”.
